We go through 2 molecules from patent US9314421B2, “Ultrasound-enhanced intrascleral delivery of macromolecules” (The Hong Kong University of Science and Technology, priority 2009, dated 2016).

The format of data set [1] is in vitro ADME, New Zealand White Rabbit. The method, then: The eyes of New Zealand White Rabbits (6-month to one-year-old) were enucleated immediately after the rabbits were sacrificed. The eyes were kept on ice prior to experiments and the time lag never exceeded 15 minutes to ensure tissue freshness. All the periocular tissues (muscles and conjunctiva) were removed and the optic nerve was sealed with Vaseline®. The eye was immersed in a container filled with 4 ml of 0.1% FITC-BSA or BBS+®. An ultrasound transducer with a probe size of 1 cm^2 (BTL-4000, BTL Industries, Inc., Clark, N.J.) was positioned a few millimeters above the sclera near the equator. The zone of ultrasound application was labeled with a marker. Ultrasound at a therapeutic frequency (1 MHz) and a low power input (0.5 W/cm^2) was applied for 30 seconds. The eye continued to be immersed in 0.1% FITC-BSA or BBS+® for different time intervals (5, 15, 30 and 60 minutes for 0.1% FITC-BSA; 15 minutes for BSS+®). All of the experiments were carried out at room temperature. The scleral surface temperature at the ultrasound application zone before and after treatment was measured using a thermocouple. Controls were performed by immersing the eyes for different time intervals without ultrasound application.
Immediately after the ex vivo experiments, the whole eye was washed and immersed in a mould filled with optimum cutting temperature medium (O.C.T) (Leica, Wetzlar, Germany), followed by quick-freezing in liquid nitrogen. 10 μm thick sections across the marked ultrasound application zone of the eye were cut using a cryostat (CM1850, Leica, Wetzlar, Germany). Polylysine-coated slides were used for collecting the tissue sections.
All images were acquired using a fluorescence microscope (BX 41, Olympus, Center Valley, Pa.). The image of the sclera was captured under optical mode, and FITC-BSA penetration into the sclera was captured under fluorescence mode (bandpass filter: 510-550 nm, dichroic mirror: 570 nm, barrier filter: 590 nm, exposure time: […]). The pictures shown in the FIGS. 15-17 were merged images of these two modes. The thickness of the sclera and the penetration distance of FITC-BSA were obtained using the software SPOT® (Diagnostic Instruments, Inc., MI, USA). For each experiment or control, 2 to 4 eyes from different rabbits were used. Three tissue sections were obtained from each eye and at least 20 measurements on the penetration distance were made in each eye. Only images showing intact sclera were used for measurement to avoid ambiguity.
In the first set of experiments, the parameters of the ultrasound used were set as follows: frequency: 1 MHz, power: 0.5 W/cm^2, application duration: 30 seconds, size of transducer: 1 cm^2. Freshly enucleated New Zealand White Rabbit eyes were used as an ex vivo eye model, and 65 kDa protein fluorescent albumin was used as the model macromolecule. Whole rabbit eyes were immersed in fluorescent albumin solution. Ultrasound was applied for 30 s and then the eyes were kept in fluorescent albumin for 5, 15 or 30 minutes. For the control experiment, the eyes were immersed in fluorescent albumin for 15 minutes without ultrasound application. The eyes were then flash frozen in OCT (Optimum Cutting Temperature) medium with liquid nitrogen and sectioned in cryostat for further investigation.
Briefly, the parameters of the ultrasound were set as follows: frequency: 1 MHz, power: 0.5 W/cm^2, application duration: 30 seconds, size of transducer: 1 cm^2. […]

A short description of data set [2]: Calculation of intrascleral diffusivity from penetration distance versus square root of time. The format is in vitro ADME, New Zealand White Rabbit. As to conditions: for intrascleral diffusivity: 37° C. The method, then:
The one-dimensional diffusion model describing the penetration distance (L), diffusivity (D) and time of diffusion (t) is given by the equation below (23): L=√{square root over (2Dt)}. (1)
A plot of the penetration distance versus the square root of time yields a straight line. The diffusivity is calculated from the slope, which equals […].
The diffusivity measured at room temperature is converted to the value at 37° C. according to Stokes-Einstein equation, which gives
[formula] where D and η are diffusivity and viscosity respectively, with the temperature designated at the subscript. Since the experiment was conducted in dilute buffer solution, the viscosity of water is used. Histological Study

For data set [3] the following is noted: with ultrasound; cited from earlier work.

“And” between values parts separate entries of the source, which are not always exact repeats. Equal values may be shown once.

Regarding “FITC-BSA: 65 kDa protein fluorescent albumin used as the model macromolecule”, in data set [1], the “depth of intrascleral site reached” value is reported as “about 110 μm”, the “increase in percentage of depth of protein penetration versus control” value is 4 folds, the “level of penetration (qualitative)” value is reported as “failed to penetrate into the sclera” and the penetration depth was 15.8±5.7 μm. Besides, the “penetration versus sample without 15-minute BSS+ pretreatment” value in data set [1] was “much lower”. The “increase in ocular diffusivity” value in data set [2] (0.5 W/cm^2, 1 MHz ultrasound for 30 seconds) is listed as 2 folds. In data set [2] (control without ultrasound), the intrascleral diffusivity is 3.90×10^−08 cm^2/sec. Besides, the intrascleral diffusivity in data set [2] (with ultrasound, first 15 min) was 6.17×10^−8 cm^2/sec and 6.17×10^−08 cm^2/sec. Further, in data set [2] (with ultrasound, from 15 to 60 min), the intrascleral diffusivity is recorded as 4.18×10^−8 cm^2/sec. In addition, in data set [2] (first 15 minutes, ultrasound versus no ultrasound), the “increase in diffusivity by ultrasound treatment” value is 1.6 times.
With `O=C([O-])c1ccccc1-c1c2ccc(=O)cc-2oc2cc([O-])ccc12.[Na+].[Na+]` [sodium fluorescein], the “enhancement of delivery through the cornea versus passive diffusion” value in data set [3] was “ten times”.
